We go through 5 substances from patent US20040110170A1, “Cloning and characterization of calcitonin gene related peptide receptors” (priority 2002, published 2004).

The target in one experiment is T1, JPr-CGRP receptor (Rattus norvegicus, UniProt O89039).
T1 construct: expressed in transfected cells; pCDL-Srα vector)
Put plainly: Adenylate Cyclase Stimulation assay (cAMP), NIH/3T3 cells stably expressing JPr-CGRP receptor. In kind it is cell-based. The settings on record: assay not specified. The procedure: The cells were washed with 1 ml of a nutrient deficient DMEM solution (Gibco-BRL, Gaithersburg, Md.) to remove excess radioisotope and incubated for 10 minutes (37° Celsius). […] Peptide was added in 5 μL aliquots to 21 of the 24 wells with three receiving no peptide to serve as a baseline for stimulation. The remaining 21 wells were incubated at 37° Celsius with increasing concentrations of the indicated peptide and the response was measured.

In experiment [1] the target is JPr-CGRP receptor (rat CGRP receptor, JPr-CGRP-R) (rat) (UniProt O89039). Put plainly: Radioligand binding inhibition; unlabelled CGRP against 50 pM 125I-CGRP on stably transfected NIH/3T3 cells.
The target in experiment [2] is Skb-CGRP receptor (previously reported human CGRP type 1 receptor, Skb-CGRP-R) (human) (UniProt Q16602). Described as above.
In experiment [3] the test system is vector control transfected HEK 293 cells. The settings on record: cited from earlier work.

Ends that are not written are not given here.

T1 sequence (O89039 whole entry): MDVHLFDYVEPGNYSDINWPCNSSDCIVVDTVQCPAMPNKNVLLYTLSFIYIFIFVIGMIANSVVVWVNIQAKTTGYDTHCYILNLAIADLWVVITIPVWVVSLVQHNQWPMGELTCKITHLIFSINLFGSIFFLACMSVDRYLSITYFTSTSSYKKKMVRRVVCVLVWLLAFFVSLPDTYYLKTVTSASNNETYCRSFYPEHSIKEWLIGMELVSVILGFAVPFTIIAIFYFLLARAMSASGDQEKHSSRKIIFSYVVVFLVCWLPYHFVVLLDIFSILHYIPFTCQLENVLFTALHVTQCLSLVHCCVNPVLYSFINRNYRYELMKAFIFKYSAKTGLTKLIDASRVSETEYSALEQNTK
Sequence of Skb-CGRP receptor (previously reported human CGRP type 1 receptor, Skb-CGRP-R) (human) (Q16602 23-461): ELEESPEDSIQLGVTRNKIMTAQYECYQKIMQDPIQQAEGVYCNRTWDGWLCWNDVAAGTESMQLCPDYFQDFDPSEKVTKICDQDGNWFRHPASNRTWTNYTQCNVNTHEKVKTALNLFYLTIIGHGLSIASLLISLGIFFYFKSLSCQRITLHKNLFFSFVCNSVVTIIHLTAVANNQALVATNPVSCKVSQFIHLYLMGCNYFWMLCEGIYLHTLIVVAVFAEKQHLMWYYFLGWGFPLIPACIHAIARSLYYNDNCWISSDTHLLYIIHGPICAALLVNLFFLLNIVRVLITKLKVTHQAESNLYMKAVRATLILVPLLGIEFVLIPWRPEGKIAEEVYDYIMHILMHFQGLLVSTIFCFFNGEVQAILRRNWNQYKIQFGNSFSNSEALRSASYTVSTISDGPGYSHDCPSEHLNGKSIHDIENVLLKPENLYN
Sequence of JPr-CGRP receptor (rat CGRP receptor, JPr-CGRP-R) (rat) (O89039 whole entry): as the sequence (O89039 whole entry) above

For Calcitonin, the “response of the JPr-CGRP receptor to related peptides” value (“response of the JPr-CGRP receptor” below) on JPr-CGRP receptor is given as “shows response”.

As to Adrenomedullin: peptide related to CGRP, the “response of the JPr-CGRP receptor” value with JPr-CGRP receptor was “shows response”.

As for Calcitonin Gene Related Peptide (CGRP), the IC50 – broadly, the concentration that inhibits the measured activity by half – in experiment [1] amounted to 0.0398 nM; in experiment [2] it was 0.501 nM.

As for “human Calcitonin: human Calcitonin, has cross reactivity with the CGRP receptor (CGNLSTCMLGTYTQDFNKFHTFPQTAIGVGAP; not fully specified (C-terminus, bridges); ends and bridges not checked; UniProt P01258 85-116, looked up)”, the “cAMP accumulation as % of the maximum cAMP induced by CGRP in Skb-CGRP-R transfected cells” value in experiment [3] is 75%.

As to “Amylin: peptide related to CGRP, tested on the receptor (KCNTATCATQRLANFLVHSSNNFGAILSSTNVGSNTY; not fully specified (C-terminus, bridges); cysteine pairing not given here; UniProt P10997 34-70, looked up)”, the “response of the JPr-CGRP receptor” value with JPr-CGRP receptor is reported as “shows response”.
